What was measured:
[1] = molecular target: T1, mouse CD73 (SEQ ID NO: 71) (Mus musculus, UniProt Q61503); assay: SPR (Biacore 8K) binding affinity and kinetics to mouse CD73
T1 construct: purchased BPS Bioscience
T1 sequence (Q61503 29-551): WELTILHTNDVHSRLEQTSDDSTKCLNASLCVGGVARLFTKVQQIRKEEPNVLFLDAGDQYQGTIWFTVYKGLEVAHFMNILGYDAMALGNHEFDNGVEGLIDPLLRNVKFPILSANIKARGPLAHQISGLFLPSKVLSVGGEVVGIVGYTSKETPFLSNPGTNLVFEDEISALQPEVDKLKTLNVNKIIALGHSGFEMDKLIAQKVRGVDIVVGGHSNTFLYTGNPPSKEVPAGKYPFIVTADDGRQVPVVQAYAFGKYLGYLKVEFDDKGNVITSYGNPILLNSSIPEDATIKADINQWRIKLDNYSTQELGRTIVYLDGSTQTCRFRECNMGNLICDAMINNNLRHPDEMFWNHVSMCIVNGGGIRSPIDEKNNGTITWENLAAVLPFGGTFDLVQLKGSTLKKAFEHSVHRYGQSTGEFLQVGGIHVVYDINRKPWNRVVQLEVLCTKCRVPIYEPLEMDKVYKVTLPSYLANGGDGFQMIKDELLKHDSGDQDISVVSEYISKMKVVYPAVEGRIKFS
Experimental: The SPR running buffer (10 mM HEPES, 150 mM NaCl, 3 mM EDTA and 0.05% v/v Surfactant P20, pH 7.4) was prepared from 10×HBS-EP Buffer (GE Healthcare). Anti-human Fc antibodies (GE Healthcare) were immobilized via amine coupling on all sixteen flow cells of an S series sensor chip CM5 (GE Healthcare). The immobilization levels were ˜9000 RU for all flow cells. The desired capturing level of anti-CD73 antibody was achieved by flowing appropriate concentration of anti-CD73 antibody through the active flow cell of each channel. The non-cleavable ADP analogue APCP (adenosine-5′-(α,β-methylene) diphosphate) with the presence of Zn^2+ can be used to shift the CD73 conformational equilibrium from open towards closed. Therefore, recombinant CD73 was incubated with SPR running buffer in the presence of 100 μM APCP and 10 μM ZnCl2 (closed SPR running buffer) to study the binding of anti-CD73 antibody to the CD73 in the closed conformation. To achieve this, the ABA injection feature in Biacore 8K was used. For open conformation, the ABA injection sequence started with 60 seconds injection of running buffer. Then, CD73 3-fold serial dilution concentration series prepared from CD73 stock (BPS Bioscience) and running buffer were injected for 180 seconds immediately followed by running buffer for 240 seconds. […]

[2] = molecular target: T2, cellular CD73 on MDA-MB-231 cells (Homo sapiens, UniProt P21589); assay: Cellular CD73 inhibition (AMP-Glo), MDA-MB-231 cells; type: cell-based; conditions: 100 μM AMP, 3 hours
T2 construct: endogenous in cells; host or cells: MDA-MB-231
T2 sequence (P21589 27-549): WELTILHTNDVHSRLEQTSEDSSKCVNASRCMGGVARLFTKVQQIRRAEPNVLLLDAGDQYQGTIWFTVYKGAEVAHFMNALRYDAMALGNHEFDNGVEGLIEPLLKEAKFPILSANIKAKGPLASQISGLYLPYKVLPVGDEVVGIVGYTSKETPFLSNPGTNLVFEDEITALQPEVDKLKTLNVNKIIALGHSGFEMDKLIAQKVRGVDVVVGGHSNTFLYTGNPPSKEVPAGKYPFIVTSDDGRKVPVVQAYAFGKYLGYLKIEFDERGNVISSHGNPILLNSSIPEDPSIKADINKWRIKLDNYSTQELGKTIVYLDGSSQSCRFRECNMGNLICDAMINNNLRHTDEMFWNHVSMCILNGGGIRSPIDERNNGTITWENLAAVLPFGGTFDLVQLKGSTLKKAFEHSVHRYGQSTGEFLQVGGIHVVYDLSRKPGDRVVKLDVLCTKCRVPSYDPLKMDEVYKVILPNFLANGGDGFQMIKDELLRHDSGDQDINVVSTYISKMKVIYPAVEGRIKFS
Experimental: To measure ability of anti-CD73 antibody to inhibit CD73 activity on cells, A375 and MDA-MB-231 cells were washed with serum free RPMI media (ThermoFisher) and plated in 96-well plates at a concentration of 8×10^4 cells/well for A375 or 1×10^4 cells/well for MDA-MB-231. The cells were incubated with the indicated concentration of antibodies or APCP at 37° C. 5% C02 for 30 minutes (FIG. 3A, FIG. 3B, and FIG. 3C). Next, adenosine monophosphate (AMP) was added to a final concentration of 100 μM and cells were incubated an additional 3 hours at 37° C. 5% CO2. Plates were centrifuged for 1-2 minutes at 300 g and 25 μL of supernatant was transferred into a new 96-well plates. AMP-Glo Assay was used according to the manufacturer's instructions (Promega). Relative luminescence unit (RLU) is directly correlated with the AMP concentration in this assay. Results are depicted in FIG. 3A, FIG. 3B, and FIG. 3C. […] Results are depicted in FIG. 8A and FIG. 8B. […] Cells were incubated with the indicated concentration of antibodies or APCP at 37° C. 5% CO2 for 30 minutes. Next, AMP was added to a final concentration of 100 μM and cells were incubated an additional 3 hours at 37° C. 5% CO2. Plates were centrifuged for 1-2 minutes at 300 g and 25 μL of supernatant was transferred into a new 96-well plates. AMP-Glo Assay was used according to the manufacturer's instructions. […]

B1: CL25: chimeric anti-human CD73 monoclonal antibody, murine VH SEQ ID NO:26 and VL SEQ ID NO:27 with human IgG1 Fc (antibody, V domains shown)
VH: QVQLQQSGAELARPGASVKLSCRASGYTFTSYGLSWVKQRTGQGLEWIGEIYPGSGNTYYNEKFKGKATLTADKSSSTAYMELRSLTSEDSAVYFCARYDYLGSSYGFDYWGQGTTLTVSS
VL: DIVMTQSHKFMSTSVGDRVSITCKASQDVSTAVAWYQQKPGQSPKLLIYSASYRYNGVPDRFTGSGSGTDFTFTISSVQAEDLAVYYCQQHYNTPYTFGGGTKLEIK
modifications: human IgG1 Fc constant regions without entry
[1]; murine CD73, closed conformation (merged ka/kd/KD cell)
  KD: No Binding
[1]; murine CD73, open conformation (merged ka/kd/KD cell where no binding)
  KD: No Binding
[2]
  cellular CD73 inhibition: good potency

— patent US12060433B2, “CD73 inhibitor and A2A/A2B adenosine receptor inhibitor combination therapy” (Incyte Corporation, priority 2020, dated 2024)
